Measured values taken from patent US8124835B2, “Acyl-coa-dependent diacylglycerol acyltransferas 1 (DGAT1) gene from Tropaeolum majus, protein encoded thereby and uses thereof” (National Research Council of Canada, priority 2006, dated 2012).

Test system: B. napus HEAR breeding line 2026
Experiment: Over-expression of TmDGAT1 in B. napus HEAR breeding line 2026
Assay type: in vivo, Brassica napus
Source text: FIG. 12. Over expression of the TmDGAT1 in B. napus High erucic acid rapeseed breeding line 2026 (courtesy of Dr. P. B. E. McVetty, University of Manitoba). Effect of transformation of B. napus with the TmDGAT1 cDNA under control of the napin promoter on (A) oil content (as percentage of mature seed dry weight), (B) Total oil/100 seeds, (C) Relative net oil content (with the control average set at 100%). T1 seeds of B. napus plasmid-only control transgenic lines (napin:pSE; black bar) and napin:TmDGAT1 transgenic lines (hatched bars) are shown ±SE.
The final binary vector (napin/DGAT/nos) was verified and electroporated into Agrobacterium tumefaciens cells strain GV3101 containing helper plasmid pMP90 (Koncz and Schell, 1986). Plasmid integrity was verified by DNA sequencing following its re-isolation from A. tumefaciens and transformation into E. coli.
Arabidopsis thaliana (ecotype Columbia) WT and mutant line AS11 (Katavic et al., 1995; Zou et al, 1999) were transformed by a vacuum infiltration method (Clough and Bent, 1998). B. napus HEAR breeding line 2026 (courtesy of Dr. P. B. E. McVetty, University of Manitoba) was transformed utilizing hypocotyl explants and a modified method of DeBlock et al., 1998. Modifications of the hypocotyl explant transformation method were described previously (Zou et al., 1997).
Total lipid extracts (TLEs) were prepared as described above, and lipid class analyses, determination of oil content and composition in all seed lines from WT and the AS11 transgenic plants and in nasturtium seed were performed as described previously (Taylor et al., 1991; 1992 a & b; Zou et al., 1997; Jako et al., 2001). In all cases, the data represent the averages of three to five determinations. Intact-seed transmethylation followed by gas chromatography (GC) analysis provided equally reproducible analyses of Arabidopsis seed oil as reported by Li et al., (2006). […]

B1: TmDGAT1: Tropaeolum majus acyl-CoA-dependent diacylglycerol acyltransferase 1, 518 amino acids (SEQ ID NO: 3), encoded by ORF SEQ ID NO: 2 (protein, listed as Tropaeolum majus)
chain: MAVAESSQNTTTMSGHGDSDLNNFRRRKPSSSVIEPSSSGFTSTNGVPATGHVAENRDQDRVGAMENATGSVNLIGNGGGVVIGNEEKQVGETDIRFTYRPSFPAHRRVRESPLSSDAIFKQSHAGLFNLCIVVLIAVNSRLIIENLMKYGWLIDTGFWFSSRSLGDWSIFMCCLTLPIFPLAAFIVEKLVQRNHISELVAVLLHVIVSTAAVLYPVIVILTCDSVYMSGVVLMLFGCIMWLKLVSYAHTSSDIRTLAKSGYKGDAHPNSTIVSCSYDVSLKSLAYFMVAPTLCYQPSYPRSSCIRKGWVVRQFVKLIVFIGLMGFIIEQYINPIVRNSKHPLKGDFLYAIERVLKLSVPNLYVWLCMFYSFFHLWLNILAELLRFGDREFYKDWWNAKTVAEYWKMWNMPVHRWMVRHLYFPCLRNGIPKEGAIIIAFLVSGAFHELCIAVPCHVFKLWAFIGIMFQVPLVLITNYLQEKFSNSMVGNMIFWFIFCILGQPMCVLLYYHDLINLKEK
oil content increase (T1 generation compared to average pSE plasmid-only control lines): 3.5-4.5%
increase in oil content on a per 100-seed basis (T1 seeds): 20 to 30 mg
net overall oil increase (T1 seeds compared with average of pSE controls): ≤ 15%
